# Test results taken from doi:10.1101/2024.07.30.605797.
# pKd: −log10 of the molar value.
# Target: C-terminal His6-tagged VanA-type VanS^127-384 (cytoplasmic domain of the histidine kinase VanS) (UniProt Q06240)
# Experiment: differential scanning fluorimetry
row,Substance,pKd
1,siamycin I (peptide),4.42
2,sviceucin (peptide),4.28
